Experimental data from US20180346602A1.

How the values were obtained:
[1] = target: anti-VEGF/ANG2 antibody (IgG1 subclass with mutations P329G/L234A/L235A/I253A/H310A/H435A) [IgG part: P01857]; experiment: sandwich ELISA assay A; capture M1.7.10-Bi; antibody 1 at 25 ng/mL
[2] = target: anti-P-Selectin antibody (IgG4 subclass with mutations S228P/L235E) [IgG part: P01861]; experiment: sandwich ELISA assay A; capture M1.7.10-Bi; antibody 4 at 3 ng/mL
[3] = target: anti-P-Selectin antibody (IgG4 subclass with mutations S228P/L235E) [IgG part: P01861]; experiment: sandwich ELISA assay A; capture M1.7.10-Bi; antibody 4 at 25 ng/mL
[4] = target: anti-VEGF/ANG2 antibody (IgG1 subclass with mutations P329G/L234A/L235A/I253A/H310A/H435A) [IgG part: P01857]; experiment: sandwich ELISA assay A; capture M1.7.10-Bi; antibody 1 at 13 ng/mL
[5] = target: anti-P-Selectin antibody (IgG4 subclass with mutations S228P/L235E) (human) [IgG part: P01861]; experiment: sandwich ELISA assay C; capture on SA plate; tracer FcγRI-Dig; analyte 0 ng/mL (blank)
[6] = target: anti-VEGF/ANG2 antibody (IgG1 subclass with mutations P329G/L234A/L235A) (human) [IgG part: P01857]; experiment: as above
[7] = target: anti-VEGF/ANG2 antibody (IgG1 subclass with mutations P329G/L234A/L235A/I253A/H310A/H435A) (human) [IgG part: P01857]; experiment: as above
[8] = target: anti-IGF-1R antibody (IgG1 subclass with mutations I253A/H310A/H435A) (human) [IgG part: P01857]; experiment: as above
[9] = target: anti-P-Selectin antibody (IgG4 subclass with mutations S228P/L235E) (human) [IgG part: P01861]; experiment: sandwich ELISA assay B; capture on SA plate; tracer M1.7.10-Dig; analyte 25 ng/mL
[10] = target: anti-VEGF/ANG2 antibody (IgG1 subclass with mutations P329G/L234A/L235A) (human) [IgG part: P01857]; experiment: as above
[11] = target: anti-VEGF/ANG2 antibody (IgG1 subclass with mutations P329G/L234A/L235A/I253A/H310A/H435A) (human) [IgG part: P01857]; experiment: as above
[12] = target: anti-VEGF/ANG2 antibody (wild-type IgG1 subclass) [IgG part: P01857]; experiment: sandwich ELISA assay A; capture M1.7.10-Bi; antibody 5 at 100 ng/mL
[13] = target: anti-IGF-1R antibody (IgG1 subclass with mutations I253A/H310A/H435A) [IgG part: P01857]; experiment: sandwich ELISA assay A; capture M1.7.10-Bi; antibody 3 at 25 ng/mL
[14] = target: anti-VEGF/ANG2 antibody (IgG1 subclass with mutations P329G/L234A/L235A/I253A/H310A/H435A) [IgG part: P01857]; experiment: sandwich ELISA assay A; capture M1.7.10-Bi; antibody 1 at 50 ng/mL
[15] = target: anti-VEGF/ANG2 antibody (IgG1 subclass with mutations P329G/L234A/L235A) [IgG part: P01857]; experiment: sandwich ELISA assay A; capture M1.7.10-Bi; antibody 2 at 0 ng/mL (blank)
[16] = target: anti-VEGF/ANG2 antibody (IgG1 subclass with mutations P329G/L234A/L235A) [IgG part: P01857]; experiment: sandwich ELISA assay A; capture M1.7.10-Bi; antibody 2 at 25 ng/mL
[17] = target: anti-P-Selectin antibody (IgG4 subclass with mutations S228P/L235E) (human) [IgG part: P01861]; experiment: sandwich ELISA assay B; capture on SA plate; tracer M1.7.10-Dig; analyte 50 ng/mL
[18] = target: anti-VEGF/ANG2 antibody (IgG1 subclass with mutations P329G/L234A/L235A) (human) [IgG part: P01857]; experiment: as above
[19] = target: anti-VEGF/ANG2 antibody (IgG1 subclass with mutations P329G/L234A/L235A/I253A/H310A/H435A) (human) [IgG part: P01857]; experiment: as above
[20] = target: anti-IGF-1R antibody (IgG1 subclass with mutations I253A/H310A/H435A) (human) [IgG part: P01857]; experiment: as above
[21] = target: anti-VEGF/ANG2 antibody (IgG1 subclass with mutations P329G/L234A/L235A) [IgG part: P01857]; experiment: sandwich ELISA assay A; capture M1.7.10-Bi; antibody 2 at 3 ng/mL
[22] = target: anti-VEGF/ANG2 antibody (wild-type IgG1 subclass) [IgG part: P01857]; experiment: sandwich ELISA assay A; capture M1.7.10-Bi; antibody 5 at 2 ng/mL
[23] = target: anti-IGF-1R antibody (IgG1 subclass with mutations I253A/H310A/H435A) [IgG part: P01857]; experiment: sandwich ELISA assay A; capture M1.7.10-Bi; antibody 3 at 100 ng/mL
[24] = target: anti-IGF-1R antibody (IgG1 subclass with mutations I253A/H310A/H435A) [IgG part: P01857]; experiment: sandwich ELISA assay A; capture M1.7.10-Bi; antibody 3 at 6 ng/mL
[25] = target: anti-VEGF/ANG2 antibody (wild-type IgG1 subclass) [IgG part: P01857]; experiment: sandwich ELISA assay A; capture M1.7.10-Bi; antibody 5 at 0 ng/mL (blank)

Binder	signal [OD405 nm] [1] [OD405 nm]	signal [OD405 nm] [2] [OD405 nm]	signal [OD405 nm] [3] [OD405 nm]	signal [OD405 nm] [4] [OD405 nm]	signal [OD405 nm] [5] [OD405 nm]	signal [OD405 nm] [6] [OD405 nm]	signal [OD405 nm] [7] [OD405 nm]	signal [OD405 nm] [8] [OD405 nm]	signal [OD405 nm] [9] [OD405 nm]	signal [OD405 nm] [10] [OD405 nm]	signal [OD405 nm] [11] [OD405 nm]	signal [OD405 nm] [12] [OD405 nm]	signal [OD405 nm] [13] [OD405 nm]	signal [OD405 nm] [14] [OD405 nm]	signal [OD405 nm] [15] [OD405 nm]	signal [OD405 nm] [16] [OD405 nm]	signal [OD405 nm] [17] [OD405 nm]	signal [OD405 nm] [18] [OD405 nm]	signal [OD405 nm] [19] [OD405 nm]	signal [OD405 nm] [20] [OD405 nm]	further results
anti-AAA variant Fc-region antibody M1.6.22 (antibody, V domains shown) VH: EVQLVESGGDLVKPGGSLKLSCAASGFTFSSYGMSWVRQTPDKRLEWVATISSGGSYIYYPDSVKGRFTISRDNAKNTLYLQMSSLKSEDTAMYYCARLGMITTGYAMDYWGQGTSVTVSS VL: DVLMTQTPLSLPVSLGDQASISCRSSQTIVHSTGHTYLEWFLQKPGQSPKLLIYKVSNRFSGVPDRFSGSGSGTDFTLKISRVEAEDLGVYYCFQGSHVPYTFGGGTKLEIK	0.061	0.037	0.057	0.061	0.077	0.064	0.077	0.069	0.048	0.092	0.044	0.056	2.51	0.06	0.048	0.06	0.047	0.127	0.05	2.9	signal [OD405 nm] [21]: 0.039 OD405 nm; signal [OD405 nm] [22]: 0.047 OD405 nm; signal [OD405 nm] [23]: 2.89 OD405 nm; signal [OD405 nm] [24]: 0.858 OD405 nm; signal [OD405 nm] [25]: 0.042 OD405 nm
anti-variant (human) Fc-region antibody M1.3.17 (antibody, V domains shown) VH: EVKLLESGGGLVQPGGSLKLSCAASGIDFRRYWMNWVRQAPGKGLEWIGEIDPDSSTINYTPSLKDKFIISRDNAKNTMYLQMRKVRSEDTALYYCARPYDYGAWFAYWGQGTLVTVSA VL: QAVVTQESALTTSPGETVTLTCRSTTGAVTTSNYANWVQEKPDHLFTGLIGGTNKRAPGVPARFSGSLIGDKAALTITGAQTEDEAIYFCALWYSDHWVFGGGTKLTVL	0.04	0.033	0.037	0.04	1.19	1.23	1.18	1.22	0.047	0.213	0.035	0.042	0.043	0.043	0.042	2.93	0.049	0.215	0.035	0.048	signal [OD405 nm] [21]: 1.22 OD405 nm; signal [OD405 nm] [22]: 0.034 OD405 nm; signal [OD405 nm] [23]: 0.047 OD405 nm; signal [OD405 nm] [24]: 0.038 OD405 nm; signal [OD405 nm] [25]: 0.036 OD405 nm
anti-variant (human) Fc-region antibody M1.7.24 (antibody, V domains shown) VH: EVKLLESGGGLVQPGGSLKLSCAASGFDFSRYWMNWVRQAPGKGLEWIGEITPDSSTINYTPSLKDKFIISRDNAKNTLYLQMIKVRSEDTALYYCVRPYDYGAWFASWGQGTLVTVSA VL: QAVVTQESALTTSPGETVTLTCRSSTGAVTTSNYANWVQEKPDHLFTGLIGGTNKRAPGVPARFSGSLIGDKAALTITGAQTEDEAIYFCALWYSNHWVFGGGTKLTVL	0.047	0.04	0.048	0.047	0.076	0.092	0.076	0.086	0.04	3.16	0.047	0.042	0.047	0.051	0.043	2.61	0.043	3.17	0.06	0.064	signal [OD405 nm] [21]: 1.73 OD405 nm; signal [OD405 nm] [22]: 0.038 OD405 nm; signal [OD405 nm] [23]: 0.06 OD405 nm; signal [OD405 nm] [24]: 0.042 OD405 nm; signal [OD405 nm] [25]: 0.041 OD405 nm
